The values that follow come from US20050048527, “Endonuclease-substrate complexes” (Third Wave Technologies, Inc., published 2005).

One data set has as its target T1, Pho FEN1 (Pyrococcus horikoshii, UniProt O50123 SEQ:1-343).
T1 sequence: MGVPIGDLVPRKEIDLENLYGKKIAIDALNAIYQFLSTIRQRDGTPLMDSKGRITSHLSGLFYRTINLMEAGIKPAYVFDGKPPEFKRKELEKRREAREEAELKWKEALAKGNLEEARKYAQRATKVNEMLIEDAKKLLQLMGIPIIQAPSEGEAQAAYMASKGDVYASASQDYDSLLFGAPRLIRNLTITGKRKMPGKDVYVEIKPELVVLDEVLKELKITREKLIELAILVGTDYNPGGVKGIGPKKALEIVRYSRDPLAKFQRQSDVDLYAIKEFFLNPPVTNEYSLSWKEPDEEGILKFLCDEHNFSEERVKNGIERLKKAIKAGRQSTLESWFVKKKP
As to the kind of experiment: cleavage_in_vitro; rate vs Pfu FEN1. The settings on record: label: 5'-TET; X-structure. As to the method:
(§1) For the evaluation of chimeric enzymes, standard tests were performed to measure the performance and specificity of the enzymes. […] 10 μl reactions are run at 59 C for between 5 to 60 minutes depending on the enzyme. Reactions are stopped by the addition of 10 μl of 95% formamide, 0.02% methyl violet. 1 μl of the mixture is run on a denaturing 20% acrylamide gel and electrophoresed for 15 minutes or until good separation is achieved between cleaved and uncleaved probe. The gels are scanned using an FMBIO fluorescent gel scanner and the bands are quantified with FMBIOAnalysis software. Cleavage rates are determined from the percent probe cleaved. Cleavage rate for the INVADER substrate is defined as the number of probe molecules cleaved per target molecule per minute. In Table 5, below, the cleavage rates for the mutant enzymes are compared to the cleavage rates for unmodified Pfu FEN1 enzyme on the INVADER assay and X-structure substrates.
(§2) The X-structure substrate is used to determine the amount of background cleavage an enzyme will carry out in an INVADER reaction. It mimics the structure created by uncut primary probe and secondary FRET cassette in the INVADER squared reaction. […] 10 μl reactions are run at 59 C for between 3 to 30 minutes depending on the enzyme. Reactions are stopped by the addition of 10 μl of 95% formamide, 0.02% methyl violet. 1 μl of the mixture is run on a denaturing 20% acrylamide gel and electophoresed for 15 minutes or until good separation is achieved between cleaved and uncleaved probe. The gels are scanned using an FMBIO fluorescent gel scanner and the bands are quantified with FMBIOAnalysis software. Cleavage rates are determined from the percent probe cleaved.

In a further data set the target is T2, Pfu Y33A FEN1 (Pyrococcus furiosus, UniProt O93634 SEQ:1-340, Y33A).
T2 sequence: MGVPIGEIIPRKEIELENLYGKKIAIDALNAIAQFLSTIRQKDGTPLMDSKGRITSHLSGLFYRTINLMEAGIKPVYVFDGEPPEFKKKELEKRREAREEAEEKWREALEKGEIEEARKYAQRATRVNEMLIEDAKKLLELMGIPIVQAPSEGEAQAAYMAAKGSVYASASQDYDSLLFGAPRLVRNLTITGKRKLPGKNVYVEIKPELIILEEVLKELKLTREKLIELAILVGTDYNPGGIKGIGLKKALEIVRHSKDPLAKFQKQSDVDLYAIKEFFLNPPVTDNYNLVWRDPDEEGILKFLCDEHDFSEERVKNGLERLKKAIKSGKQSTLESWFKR
The data set can be described thus: cleavage_in_vitro; rate vs Pfu FEN1. Particulars: label: 5'-biotin target; 5'-TET probe; hairpin target-INVADER with overlapping probe flap. Here is the method: as §1, §2

B1: X-structure 203-81-2/203-91-2 (structured_DNA)
DNA 1: TTTTCAACTGCTTAGAGAATCTAAGCAGTTGGTGCGCCTCGTTAA
DNA 2: AACGAGGCGCACATT
modifications: 3'-NH2 on first strand
As for B1, the cleavage rate with Pho FEN1 was 120.

B2: INVADER substrate 594-12-1/203-91-1 (structured_DNA)
DNA 1: TTTTTCACGGCAGTTGGTGCGCCTCGGAACGAGGCGCACA
DNA 2: TTTTCAACTGCCGTGA
B2 displayed a cleavage rate in the data set with Pfu Y33A FEN1 of 0.05.
